Laboratory results taken from patent US20080242590A1, “New Method 706” (ASTRAZENECA AB, priority 2007, published 2008).

System: amyloid β 1-40
Test: Degradation of Aβ 1-40 in APPswe-tg mouse plasma pool (Example 28)
Assay type: biochemical
Conditions: room temperature, 1 hour
Description: Mouse plasma collected from 9 animals was stored at −70° C. Plasma was thawed and pooled just before the experiment. Aβ 1-40 and 1-42 in plasma pool was degraded by human Fc-Nep or mouse Fc-Nep with corresponding vehicles (50 mM Tris-HCl, 150 mM NaCl pH 7.5). […] The enzymatic reaction was stopped by adding Phosphoramidone (10 μM final concentration).
After degradation, before concentration of amyloid β 1-40 in tg-mouse plasma pool was measured using ELISA kit (Biosource; KHB3481), the plasma samples were diluted 20 times in standard diluent buffer, according to manufacturers instructions.

B1: Fc-Neprilysin: extracellular domain of human Neprilysin fused to the human IgG2 Fc domain (including hinge), Fc at N-terminus; SEQ ID NO 11 (protein)
chain: ERKCCVECPPCPAPPVAGPSVFLFPPKPKDTLMISRTPEVTCVVVDVSHEDPEVQFNWYVDGVEVHNAKTKPREEQFNSTFRVVSVLTVVHQDWLNGKEYKCKVSNKGLPAPIEKTISKTKGQPREPQVYTLPPSREEMTKNQVSLTCLVKGFYPSDIAVEWESNGQPENNYKTTPPMLDSDGSFFLYSKLTVDKSRWQQGNVFSCSVMHEALHNHYTQKSLSLSPGKYDDGICKSSDCIKSAARLIQNMDATTEPCTDFFKYACGGWLKRNVIPETSSRYGNFDILRDELEVVLKDVLQEPKTEDIVAVQKAKALYRSCINESAIDSRGGEPLLKLLPDIYGWPVATENWEQKYGASWTAEKAIAQLNSKYGKKVLINLFVGTDDKNSVNHVIHIDQPRLGLPSRDYYECTGIYKEACTAYVDFMISVARLIRQEERLPIDENQLALEMNKVMELEKEIANATAKPEDRNDPMLLYNKMTLAQIQNNFSLEINGKPFSWLNFTNEIMSTVNISITNEEDVVVYAPEYLTKLKPILTKYSARDLQNLMSWRFIMDLVSSLSRTYKESRNAFRKALYGTTSETATWRRCANYVNGNMENAVGRLYVEAAFAGESKHVVEDLIAQIREVFIQTLDDLTWMDAETKKRAEEKALAIKERIGYPDDIVSNDNKLNNEYLELNYKEDEYFENIIQNLKFSQSKQLKKLREKVDKDEWISGAAVVNAFYSSGRNQIVFPAGILQPPFFSAQQSNSLNYGGIGMVIGHEITHGFDDNGRNFNKDGDLVDWWTQQSASNFKEQSQCMVYQYGNFSWDLAGGQHLNGINTLGENIADNGGLGQAYRAYQNYIKKNGEEKLLPGLDLNHKQLFFLNFAQVWCGTYRPEYAVNSIKTDVHSPGNFRIIGTLQNSAEFSEAFHCRKNSYMNPEKKCRVW
Q: Which “Degradation of amyloid β 1-40 compared to plasma without treatment” value (highest concentration 100 μg/ml) does the source give for B1 here?
A: 71%

Q: What about the EC50 of the same molecule?
A: 470 nM
